Laboratory results as given in US20250243290A1.
Where “and” joins values, the source holds several entries; their conditions need not be identical. Equal values may be shown once. Read-outs that look alike come from different tables or passages of the source.

How the values were obtained:
Assay in all cases: peptide-array ELISA [Con't]
2LS2…2TREQNRIC = biological target: 2LS2…2TREQNRIC
E2LS2…2RPG = biological target: E2LS2…2RPG
WVPE2…2T = biological target: WVPE2…2T
[1] = biological target: WY2…
VPE2LSCGSR2…2T = biological target: VPE2LSCGSR2…2T
[2] = biological target: SKQEGCRL2…
[3] = biological target: WY2…2…
[4] = biological target: WNWVPE2…
VPE2LS2…2RPG = biological target: VPE2LS2…2RPG
LWNWVPE2…2T2 = biological target: LWNWVPE2…2T2
NRI2…2RL = biological target: NRI2…2RL
[5] = biological target: 2…2…
RLCAPLRK2…2APGTFSN = biological target: RLCAPLRK2…2APGTFSN
PE2LS2…2RPGW = biological target: PE2LS2…2RPGW
NWVPE2…2T = biological target: NWVPE2…2T
…2…2R = biological target: …2…2R
…2…2RPG = biological target: …2…2RPG
[6] = biological target: TSDVV2…
[7] = biological target: CQI2…2…
[8] = biological target: PE2LS2…2…
WVPE2…2T2 = biological target: WVPE2…2T2
[9] = biological target: KQEGCRL2…
[10] = biological target: EGCRL2…
E2LS2…2TREQNRIC = biological target: E2LS2…2TREQNRIC
…2RP = biological target: …2RP
[11] = biological target: 2…
[12] = biological target: VPE2LS2…2…
…2RPG = biological target: …2RPG
…2RPGW = biological target: …2RPGW
WNWVPE2…2T = biological target: WNWVPE2…2T
PE2LSCGSR2…2 = biological target: PE2LSCGSR2…2
2LS2…2RP = biological target: 2LS2…2RP
[13] = biological target: …2…
…2SK2SPGQ = biological target: …2SK2SPGQ
E2LS2…2…2 = biological target: E2LS2…2…2
[14] = biological target: Y2…
CGSR2…2 = biological target: CGSR2…2
[15] = biological target: DI2…
CTSSTDI2RPHQI2…2TSTSPTRC = biological target: CTSSTDI2RPHQI2…2TSTSPTRC
[16] = biological target: KQEGCRL2…2…
[17] = biological target: CQTAQM22SK2SPGQHCQA2TREQNRI2T2RPC
CQA2TREQNRI2T2…2RLC = biological target: CQA2TREQNRI2T2…2RLC
…2N = biological target: …2N
V2…2NV = biological target: V2…2NV
…2LS2…2TSTSPTRC = biological target: …2LS2…2TSTSPTRC
[18] = biological target: WVPE2…
…2TREQNRIC = biological target: …2TREQNRIC
[19] = biological target: E2LSCGSR2…
[20] = biological target: PE2LSCGSR2…
[21] = biological target: 2…; remark: listed apart in the source
[22] = biological target: C22SK2…2CNASMDAV2TSTSPTRC
2LSCGSR2…2T = biological target: 2LSCGSR2…2T
[23] = biological target: …2…; remark: listed apart in the source
2LSCGSR2…2T2 = biological target: 2LSCGSR2…2T2
…22SK2CNASMDAV2TSTSPTRC = biological target: …22SK2CNASMDAV2TSTSPTRC

Sequence of …2RPGW (peptide, as listed by the source): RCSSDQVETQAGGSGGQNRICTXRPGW
Sequence of KQEGCRL2… (peptide, as listed by the source): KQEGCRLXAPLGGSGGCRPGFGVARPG
Sequence of …2N (peptide, as listed by the source): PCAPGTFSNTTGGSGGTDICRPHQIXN
Sequence of DI2… (peptide, as listed by the source): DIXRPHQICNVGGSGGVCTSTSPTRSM
Sequence of SKQEGCRL2… (peptide, as listed by the source): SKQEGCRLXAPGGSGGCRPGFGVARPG
Sequence of …2TREQNRIC (peptide, as listed by the source): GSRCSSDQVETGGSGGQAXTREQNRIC
Sequence of EGCRL2… (peptide, as listed by the source): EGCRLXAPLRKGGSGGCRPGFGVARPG
Sequence of WY2… (peptide, as listed by the source): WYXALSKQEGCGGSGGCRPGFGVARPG
Sequence of Y2… (peptide, as listed by the source): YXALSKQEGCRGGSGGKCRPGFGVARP
Sequence of …2RP (peptide, as listed by the source): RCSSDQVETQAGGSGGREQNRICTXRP
Sequence of WNWVPE2… (peptide, as listed by the source): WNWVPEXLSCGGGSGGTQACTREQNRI

Substance: agonistic TNFR2 antibody MR2-1
- Raw luminescence data (2LS2…2TREQNRIC): 288
- Raw luminescence data (E2LS2…2RPG): 314
- Raw luminescence data (WVPE2…2T): 312
- Raw luminescence data [1]: 344
- Raw luminescence data (VPE2LSCGSR2…2T): 292
- Raw luminescence data [2]: 288
- Raw luminescence data [3]: 287
- Raw luminescence data [4]: 291
- Raw luminescence data (VPE2LS2…2RPG): 295
- Raw luminescence data (LWNWVPE2…2T2): 353
- Raw luminescence data (NRI2…2RL): 296
- Raw luminescence data [5]: 299
- Raw luminescence data (RLCAPLRK2…2APGTFSN): 320
- Raw luminescence data (PE2LS2…2RPGW): 305
- Raw luminescence data (NWVPE2…2T): 283
- Raw luminescence data (…2…2R): 299
- Raw luminescence data (…2…2RPG): 304
- Raw luminescence data [6]: 323
- Raw luminescence data [7]: 286
- Raw luminescence data [8]: 317
- Raw luminescence data (WVPE2…2T2): 287
- Raw luminescence data [9]: 352
- Raw luminescence data [10]: 359
- Raw luminescence data (E2LS2…2TREQNRIC): 299
- Raw luminescence data (…2RP): 324
- Raw luminescence data [11]: 351
- Raw luminescence data [12]: 301
- Raw luminescence data (…2RPG): 341 and 293
- Raw luminescence data (…2RPGW): 308
- Raw luminescence data (WNWVPE2…2T): 323
- Raw luminescence data (PE2LSCGSR2…2): 312
- Raw luminescence data (2LS2…2RP): 362
- Raw luminescence data [13]: 342 and 337
- Raw luminescence data (…2SK2SPGQ): 181 and 173
- Raw luminescence data (E2LS2…2…2): 181
- Raw luminescence data [14]: 175
- Raw luminescence data (CGSR2…2): 172
- Raw luminescence data [15]: 174
- Raw luminescence data (CTSSTDI2RPHQI2…2TSTSPTRC): 181
- Raw luminescence data [16]: 191
- Raw luminescence data [17]: 176
- Raw luminescence data (CQA2TREQNRI2T2…2RLC): 178
- Raw luminescence data (…2N): 175
- Raw luminescence data (V2…2NV): 177
- Raw luminescence data (…2LS2…2TSTSPTRC): 188
- Raw luminescence data [18]: 186 and 181
- Raw luminescence data (…2TREQNRIC): 176
- Raw luminescence data [19]: 189
- Raw luminescence data [20]: 180
- Raw luminescence data [21]: 179
- Raw luminescence data [22]: 181
- Raw luminescence data (2LSCGSR2…2T): 176
- Raw luminescence data [23]: 180
- Raw luminescence data (2LSCGSR2…2T2): 179
- Raw luminescence data (…22SK2CNASMDAV2TSTSPTRC): 173
